{"source": "the RNAGym collection of RNA variant scans (doi:10.1021/acssynbio.7b00057)", "parents": {"B1": {"name": "Pistol ribozyme (parent)", "chain": "GGGUCGUUGUUCCAUAAUCGCGUGGAUAUGGCACGCAAGUUUCUACCGGGCACCGUAAAUGUCCGACUGGAGCCGUUCGGGCGGCUAUAAACAGACCUCAGGCCCGAAGCGUGGCGGCACCUGCCGCCGGUGGUAAAAAAGAUCGGAAGAGCACACGUCU"}}, "data": [{"variants_of": "B1", "assay": "aptazyme ON/OFF ratio, guanine; higher = stronger switching; co-transcriptional cleavage with and without guanine", "values": [{"variant": "GGGUCGAGAUUAAAUAAUCGCGUGGAUAUGGCACGCAAGUUUCUACCGGGCACCGUAAAUGUCCGACUGGAGCCGUUCGGGCGGCUAUAAACAGACCUCAGGCCCGAAGCGUGGCGGCACCUGCCGCCGGUGGUAAAAAAGAUCGGAAGAGCACACGUCU", "aptazyme ON/OFF ratio": 1.41}, {"variant": "GGGUCGCGACAGCAUAAUCGCGUGGAUAUGGCACGCAAGUUUCUACCGGGCACCGUAAAUGUCCGACUGGAGCCGUUCGGGCGGCUAUAAACAGACCUCAGGCCCGAAGCGUGGCGGCACCUGCCGCCGGUGGUAAAAAAGAUCGGAAGAGCACACGUCU", "aptazyme ON/OFF ratio": 1.13}, {"variant": "GGGUCGGAACCAAAUAAUCGCGUGGAUAUGGCACGCAAGUUUCUACCGGGCACCGUAAAUGUCCGACUGGAGCCGUUCGGGCGGCUAUAAACAGACCUCAGGCCCGAAGCGUGGCGGCACCUGCCGCCGGUGGUAAAAAAGAUCGGAAGAGCACACGUCU", "aptazyme ON/OFF ratio": 1.07}, {"variant": "GGGUCGACACCCCAUAAUCGCGUGGAUAUGGCACGCAAGUUUCUACCGGGCACCGUAAAUGUCCGACUGGAGCCGUUCGGGCGGCUAUAAACAGACCUCAGGCCCGAAGCGUGGCGGCACCUGCCGCCGGUGGUAAAAAAGAUCGGAAGAGCACACGUCU", "aptazyme ON/OFF ratio": 1.08}, {"variant": "GGGUCGCUGGCACAUAAUCGCGUGGAUAUGGCACGCAAGUUUCUACCGGGCACCGUAAAUGUCCGACUGGAGCCGUUCGGGCGGCUAUAAACAGACCUCAGGCCCGAAGCGUGGCGGCACCUGCCGCCGGUGGUAAAAAAGAUCGGAAGAGCACACGUCU", "aptazyme ON/OFF ratio": 2.07}, {"variant": "GGGUCGGUACUUCAUAAUCGCGUGGAUAUGGCACGCAAGUUUCUACCGGGCACCGUAAAUGUCCGACUGGAGCCGUUCGGGCGGCUAUAAACAGACCUCAGGCCCGAAGCGUGGCGGCACCUGCCGCCGGUGGUAAAAAAGAUCGGAAGAGCACACGUCU", "aptazyme ON/OFF ratio": 1.59}, {"variant": "GGGUCGAAUCAGAAUAAUCGCGUGGAUAUGGCACGCAAGUUUCUACCGGGCACCGUAAAUGUCCGACUGGAGCCGUUCGGGCGGCUAUAAACAGACCUCAGGCCCGAAGCGUGGCGGCACCUGCCGCCGGUGGUAAAAAAGAUCGGAAGAGCACACGUCU", "aptazyme ON/OFF ratio": 1.25}, {"variant": "GGGUCGGCAGAGGAUAAUCGCGUGGAUAUGGCACGCAAGUUUCUACCGGGCACCGUAAAUGUCCGACUGGAGCCGUUCGGGCGGCUAUAAACAGACCUCAGGCCCGAAGCGUGGCGGCACCUGCCGCCGGUGGUAAAAAAGAUCGGAAGAGCACACGUCU", "aptazyme ON/OFF ratio": 1.24}, {"variant": "GGGUCGCAGACUUAUAAUCGCGUGGAUAUGGCACGCAAGUUUCUACCGGGCACCGUAAAUGUCCGACUGGAGCCGUUCGGGCGGCUAUAAACAGACCUCAGGCCCGAAGCGUGGCGGCACCUGCCGCCGGUGGUAAAAAAGAUCGGAAGAGCACACGUCU", "aptazyme ON/OFF ratio": 1.04}, {"variant": "GGGUCGCUCUUCCAUAAUCGCGUGGAUAUGGCACGCAAGUUUCUACCGGGCACCGUAAAUGUCCGACUGGAGCCGUUCGGGCGGCUAUAAACAGACCUCAGGCCCGAAGCGUGGCGGCACCUGCCGCCGGUGGUAAAAAAGAUCGGAAGAGCACACGUCU", "aptazyme ON/OFF ratio": 1.03}, {"variant": "GGGUCGAUUCGGGAUAAUCGCGUGGAUAUGGCACGCAAGUUUCUACCGGGCACCGUAAAUGUCCGACUGGAGCCGUUCGGGCGGCUAUAAACAGACCUCAGGCCCGAAGCGUGGCGGCACCUGCCGCCGGUGGUAAAAAAGAUCGGAAGAGCACACGUCU", "aptazyme ON/OFF ratio": 1.16}, {"variant": "GGGUCGAUAUAUCAUAAUCGCGUGGAUAUGGCACGCAAGUUUCUACCGGGCACCGUAAAUGUCCGACUGGAGCCGUUCGGGCGGCUAUAAACAGACCUCAGGCCCGAAGCGUGGCGGCACCUGCCGCCGGUGGUAAAAAAGAUCGGAAGAGCACACGUCU", "aptazyme ON/OFF ratio": 1.54}, {"variant": "GGGUCGACAAACAAUAAUCGCGUGGAUAUGGCACGCAAGUUUCUACCGGGCACCGUAAAUGUCCGACUGGAGCCGUUCGGGCGGCUAUAAACAGACCUCAGGCCCGAAGCGUGGCGGCACCUGCCGCCGGUGGUAAAAAAGAUCGGAAGAGCACACGUCU", "aptazyme ON/OFF ratio": 1.35}, {"variant": "GGGUCGCAGAGACAUAAUCGCGUGGAUAUGGCACGCAAGUUUCUACCGGGCACCGUAAAUGUCCGACUGGAGCCGUUCGGGCGGCUAUAAACAGACCUCAGGCCCGAAGCGUGGCGGCACCUGCCGCCGGUGGUAAAAAAGAUCGGAAGAGCACACGUCU", "aptazyme ON/OFF ratio": 1.06}, {"variant": "GGGUCGUAUGGACAUAAUCGCGUGGAUAUGGCACGCAAGUUUCUACCGGGCACCGUAAAUGUCCGACUGGAGCCGUUCGGGCGGCUAUAAACAGACCUCAGGCCCGAAGCGUGGCGGCACCUGCCGCCGGUGGUAAAAAAGAUCGGAAGAGCACACGUCU", "aptazyme ON/OFF ratio": 1.07}, {"variant": "GGGUCGAAGGGGAAUAAUCGCGUGGAUAUGGCACGCAAGUUUCUACCGGGCACCGUAAAUGUCCGACUGGAGCCGUUCGGGCGGCUAUAAACAGACCUCAGGCCCGAAGCGUGGCGGCACCUGCCGCCGGUGGUAAAAAAGAUCGGAAGAGCACACGUCU", "aptazyme ON/OFF ratio": 1.07}, {"variant": "GGGUCGACCUAUAAUAAUCGCGUGGAUAUGGCACGCAAGUUUCUACCGGGCACCGUAAAUGUCCGACUGGAGCCGUUCGGGCGGCUAUAAACAGACCUCAGGCCCGAAGCGUGGCGGCACCUGCCGCCGGUGGUAAAAAAGAUCGGAAGAGCACACGUCU", "aptazyme ON/OFF ratio": 1.09}, {"variant": "GGGUCGGCGGCUUAUAAUCGCGUGGAUAUGGCACGCAAGUUUCUACCGGGCACCGUAAAUGUCCGACUGGAGCCGUUCGGGCGGCUAUAAACAGACCUCAGGCCCGAAGCGUGGCGGCACCUGCCGCCGGUGGUAAAAAAGAUCGGAAGAGCACACGUCU", "aptazyme ON/OFF ratio": 1.47}]}]}
